Results reported in publication PMC8843743, “Targeting a proteolytic neoepitope on CUB domain containing protein 1 (CDCP1) for RAS-driven cancers” (The Journal of Clinical Investigation, 2022).

Target: T1, NTF of recombinant c-CDCP1 cut 3 (human, UniProt Q9H5V8 30-369)
T1 construct: CUB domain containing protein 1 (CDCP1), human; NTF with the native cut site 3 (proteolysis after K369); NTF (aa 30-369); The NTF alone was also made as NTF-Fc; also called NTF (cut 3); NTF (aa 30-369); source: BirA-Expi293, cotransfected with the CTF plasmid, purified (protein A or Ni-NTA)
T1 sequence (looked up): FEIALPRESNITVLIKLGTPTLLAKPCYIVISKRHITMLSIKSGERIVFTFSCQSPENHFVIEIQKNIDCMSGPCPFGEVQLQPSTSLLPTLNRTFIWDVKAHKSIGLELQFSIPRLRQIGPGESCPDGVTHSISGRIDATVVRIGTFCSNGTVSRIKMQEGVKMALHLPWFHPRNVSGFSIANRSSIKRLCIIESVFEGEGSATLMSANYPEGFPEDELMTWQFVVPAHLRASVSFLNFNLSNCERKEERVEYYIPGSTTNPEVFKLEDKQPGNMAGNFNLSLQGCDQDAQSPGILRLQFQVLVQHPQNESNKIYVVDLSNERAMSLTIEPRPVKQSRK
Experiment: co-purification after co-expression; NTF and CTF ectodomain on separate plasmids cotransfected in BirA-Expi293; protein A or Ni-NTA affinity chromatography; SDS-PAGE
Settings: partners not purified

B1: CTF ectodomain of recombinant c-CDCP1 cut 3 (domain or fragment, human, UniProt Q9H5V8 370-665, looked up)
chain: FVPGCFVCLESRTCSSNLTLTSGSKHKISFLCDDLTRLWMNVEKTISCTDHRYCQRKSYSLQVPSDILHLPVELHDFSWKLLVPKDRLSLVLVPAQKLQQHTHEKPCNTSFSYLVASAIPSQDLYFGSFCPGGSIKQIQVKQNISVTLRTFAPSFQQEASRQGLTVSFIPYFKEEGVFTVTPDTKSKVYLRTPNWDRGLPSLTSVSWNISVPRDQVACLTFFKERSGVVCQTGRAFMIIQEQRTRAEEIFSLDEDVLPKPSFHHHSFWVNISNCSPTSGKQLDLLFSVTLTPRTVD
notes: CUB domain containing protein 1 (CDCP1), human; CTF ectodomain with the native cut site 3 (proteolysis after K369); CTF (aa 370-665); also called CTF (cut 3); CTF (aa 370-665); source: BirA-Expi293, cotransfected with the NTF plasmid, purified (protein A or Ni-NTA)
Q: Does B1 bind?
A: binds
